Source: US20220288202A1, “Use of Calcineurin Inhibitor Free CTLA4-IG + Anti-IL6/IL6R For Long Term Immunosuppression in Solid Organ Transplant Recipients” (Cedars-Sinai Medical Center, priority 2019, published 2022)
Where “and” joins values, the source holds several entries; their conditions need not be identical. Equal entries are not always repeated. Entries after “also recorded” stand apart in the source; their conditions may differ.

Columns and labels:
[1] = system: highly HLA sensitized kidney transplant recipients; assay: Experience with anti-IL-6/IL-6R+CTLA4-Ig, CNI-free and MMF-free, in human kidney transplant recipients (case courses); type: in vivo
Source text: Four patients were maintained on CNI-free and MMF-free immunosuppression on anti-IL-6R or anti-IL-6+CTLA4-Ig for a prolonged time period (years) after transplant. These patients received two infusions per month as their standard immunosuppression.

[2] = system: HLA antibodies (class I and class II); assay: clazakizumab desensitization trial (NCT03380962): HLA antibody levels pre- and post-clazakizumab; type: in vivo, human
Experimental: (§1) Patients entered into the afore-described clazakizumab desensitization trial (NCT03380962) where 75% were in the 99-100% Panel Reactive Antibody (PRA) range received clazakizumab 25 mg subcutaneously monthly for up to 6 months. If transplanted, they received continued clazakizumab for up to 6 M post-transplant. This group of patients are exceedingly difficult to transplant due to high likelihood of severe antibody mediated rejection and graft loss post-transplant. Antibody levels, pre-post-transplant and Treg cells were monitored at concomitant time points.
(§2) As part of a phase I/II trial of clazakizumab for desensitization, HLA sensitized patients received anti-IL-6, 25 mg SC monthly×6 doses with monitoring of HLA antibody levels and Tregs. Patients were treated pre- and post-transplant with clazakizumab. Transplanted patients received monthly clazakizumab 25 mg subcutaneously starting 5-7 days post-transplant for 12 months. Tregs were determined by flow cytometry as CD4^+, CD25^+, CD127^dim, FoxP3^+ cell populations in CD4^+ cells. Determinations were made at baseline, at transplantation and day 180 post-transplant.

[3] = system: donor specific antibodies; assay: clazakizumab desensitization trial: donor specific antibodies pre- and post-transplant; type: in vivo, human
Experimental: as §1
Transplant patients who were treated as described in the previous example were also monitored to assess the effect of clazakizumab on donor specific antibodies. Particularly, levels of donor specific antibodies were monitored in transplant patient samples pre- and post-transplant.

[4] = system: Treg cells (CD4+, CD25+, CD127dim, FoxP3+); assay: Tregs by flow cytometry in clazakizumab-treated HLA sensitized patients; type: in vivo, human; conditions: for Mean Treg value: baseline 3.2+1.09%, in CD4+ cells
Experimental: as §2

[5] = system: highly HLA sensitized patients (HLAi kidney transplant); assay: clazakizumab desensitization trial: transplantation, rejection episodes and graft loss; type: in vivo, human; conditions: for highly sensitized patients able to receive transplants: after clazakizumab desensitization
Experimental: as §1, §2

[6] = in vivo; cited from earlier work
monkeys = conditions: monkey, in vivo; cited from earlier work
[7] = system: patients/subjects taking clazakizumab; conditions: human, in vivo, cited from earlier work
[8] = post-transplant on clazakizumab

tocilizumab
duration of stable course with declining SCr ([1]; person on CTLA4-Ig + tocilizumab monthly): over 1.5 years | SCr course ([1]; person, chronic ABMR, on CTLA4-Ig, converted from CELLCEPT to tocilizumab monthly): stable with declining SCr

C=CC[C@@H]1/C=C(\C)C[C@H](C)C[C@H](OC)[C@H]2O[C@@](O)(C(=O)C(=O)N3CCCC[C@H]3C(=O)O[C@H](/C(C)=C/[C@@H]3CC[C@@H](O)[C@H](OC)C3)[C@H](C)[C@@H](O)CC1=O)[C@H](C)C[C@@H]2OC [tacrolimus]
biopsy toxicity finding ([1]; patient, three years after anti-IL-6R start, tapered off): toxicity seen on a biopsy

B1: clazakizumab (antibody, chains of the INN, looked up, V domains shown)
VH: EVQLVESGGGLVQPGGSLRLSCAASGFSLSNYYVTWVRQAPGKGLEWVGIIYGSDETAYATSAIGRFTISRDNSKNTLYLQMNSLRAEDTAVYYCARDDSSDWDAKFNLWGQGTLVTVSS
VL: AIQMTQSPSSLSASVGDRVTITCQASQSINNELSWYQQKPGKAPKLLIYRASTLASGVPSRFSGSGSGTDFTLTISSLQPDDFATYYCQQGYSLRNIDNAFGGGTKVEIK
notes: Genetically engineered humanized anti-IL-6 mAb
Mean MFI for HLA cl ([2]; post claza, pre-desensitization 13062±3123, p=0.05, nine transplanted patients): 8585±4597 MFI | Mean MFI for HLA cll ([2]; post claza, pre-desensitization 13519±2966, p=0.03, nine transplanted patients): 8344±4836 MFI | impact on HLA antibodies (class I and class II) ([2]; pre- vs post-clazakizumab 25 mg SC monthly): significant reductions; also recorded: reduced | donor-specific antibodies present prior to transplant ([3]; at transplant): significantly reduced | DSA status of DSA+ patients ([3]; by day 180 post-transplant): negative | donor-specific antibodies present prior to transplant ([3]; post-transplant): disappeared | pathogenic antibodies ([3]; up to 3 months post-transplant): significant reduction | Mean Treg value ([4]; at transplant, p=NS): 3.5+1.75% | change in Treg cells ([4]; day 180 post-transplant, still on anti-IL-6 therapy): significant increase; also recorded: dramatic increase | Mean Treg value ([4]; day 180 post-transplant, p=0.008): 12.6+9.3% | highly sensitized patients able to receive transplants [5]: all of these patients and 9/10 | highly sensitized patients able to receive transplants ([5]; listed as claza): 10 patients | grafts lost due to rejection [5, 8]: no grafts were lost; also recorded: no graft loss | transplant patients with rejection episodes [5, 8]: Two of the ten and 2 of 10 | elimination half-life (t1/2) [6]: about 30 days | monkeys with retained placentas in which excessive uterine hemorrhage led to moribund status (monkeys): 3 of the 5 | infusion reactions ([7]; iv): no infusion reactions | severity of injection site reactions ([7]; sc): mild or moderate | demyelinating disorder events [7]: rarely reported | malignancies [7]: no imbalance of malignancies | outcome of pregnancies in subjects taking clazakizumab [7]: one spontaneous abortion | reactivation of viral and other serious infections (e.g. EBV or TB) [7]: rarely reported
